Target: FITC-labelled type I collagen (UniProt P02453)
Chain of UniProt P02453 (P02453 23-1217, chain 1 of 2): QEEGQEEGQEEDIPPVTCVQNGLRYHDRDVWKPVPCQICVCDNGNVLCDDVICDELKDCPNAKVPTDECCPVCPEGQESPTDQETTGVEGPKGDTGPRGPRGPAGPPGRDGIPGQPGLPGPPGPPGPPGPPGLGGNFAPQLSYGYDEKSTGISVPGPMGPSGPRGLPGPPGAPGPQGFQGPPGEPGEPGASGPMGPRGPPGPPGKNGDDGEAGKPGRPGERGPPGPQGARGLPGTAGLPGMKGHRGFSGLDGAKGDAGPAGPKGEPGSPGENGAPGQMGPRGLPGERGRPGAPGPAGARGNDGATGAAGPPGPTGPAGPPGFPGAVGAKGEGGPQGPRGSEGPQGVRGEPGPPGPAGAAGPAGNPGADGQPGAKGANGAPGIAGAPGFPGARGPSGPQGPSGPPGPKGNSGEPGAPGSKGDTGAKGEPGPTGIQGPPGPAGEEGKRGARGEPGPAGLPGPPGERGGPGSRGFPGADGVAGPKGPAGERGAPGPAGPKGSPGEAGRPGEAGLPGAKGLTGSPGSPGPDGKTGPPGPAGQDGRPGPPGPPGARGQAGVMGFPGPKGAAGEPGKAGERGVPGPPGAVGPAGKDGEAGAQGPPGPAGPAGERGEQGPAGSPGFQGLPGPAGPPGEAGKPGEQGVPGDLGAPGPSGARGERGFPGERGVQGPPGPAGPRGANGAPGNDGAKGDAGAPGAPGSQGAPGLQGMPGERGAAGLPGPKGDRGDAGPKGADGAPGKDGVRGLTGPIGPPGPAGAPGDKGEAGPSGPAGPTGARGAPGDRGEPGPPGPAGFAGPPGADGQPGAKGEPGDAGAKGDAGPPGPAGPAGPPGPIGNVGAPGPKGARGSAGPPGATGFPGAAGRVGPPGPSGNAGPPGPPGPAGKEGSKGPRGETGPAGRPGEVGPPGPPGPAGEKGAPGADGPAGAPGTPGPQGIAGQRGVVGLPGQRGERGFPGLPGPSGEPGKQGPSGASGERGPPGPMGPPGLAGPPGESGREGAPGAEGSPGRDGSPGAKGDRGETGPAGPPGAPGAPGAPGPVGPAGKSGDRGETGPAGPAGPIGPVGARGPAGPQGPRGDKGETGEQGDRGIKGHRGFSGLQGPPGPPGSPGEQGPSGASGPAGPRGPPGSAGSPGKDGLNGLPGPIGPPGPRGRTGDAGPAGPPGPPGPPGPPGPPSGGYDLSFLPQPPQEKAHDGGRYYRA
Chain of UniProt P02453 (P02465 80-1117, chain 2 of 2, further chain): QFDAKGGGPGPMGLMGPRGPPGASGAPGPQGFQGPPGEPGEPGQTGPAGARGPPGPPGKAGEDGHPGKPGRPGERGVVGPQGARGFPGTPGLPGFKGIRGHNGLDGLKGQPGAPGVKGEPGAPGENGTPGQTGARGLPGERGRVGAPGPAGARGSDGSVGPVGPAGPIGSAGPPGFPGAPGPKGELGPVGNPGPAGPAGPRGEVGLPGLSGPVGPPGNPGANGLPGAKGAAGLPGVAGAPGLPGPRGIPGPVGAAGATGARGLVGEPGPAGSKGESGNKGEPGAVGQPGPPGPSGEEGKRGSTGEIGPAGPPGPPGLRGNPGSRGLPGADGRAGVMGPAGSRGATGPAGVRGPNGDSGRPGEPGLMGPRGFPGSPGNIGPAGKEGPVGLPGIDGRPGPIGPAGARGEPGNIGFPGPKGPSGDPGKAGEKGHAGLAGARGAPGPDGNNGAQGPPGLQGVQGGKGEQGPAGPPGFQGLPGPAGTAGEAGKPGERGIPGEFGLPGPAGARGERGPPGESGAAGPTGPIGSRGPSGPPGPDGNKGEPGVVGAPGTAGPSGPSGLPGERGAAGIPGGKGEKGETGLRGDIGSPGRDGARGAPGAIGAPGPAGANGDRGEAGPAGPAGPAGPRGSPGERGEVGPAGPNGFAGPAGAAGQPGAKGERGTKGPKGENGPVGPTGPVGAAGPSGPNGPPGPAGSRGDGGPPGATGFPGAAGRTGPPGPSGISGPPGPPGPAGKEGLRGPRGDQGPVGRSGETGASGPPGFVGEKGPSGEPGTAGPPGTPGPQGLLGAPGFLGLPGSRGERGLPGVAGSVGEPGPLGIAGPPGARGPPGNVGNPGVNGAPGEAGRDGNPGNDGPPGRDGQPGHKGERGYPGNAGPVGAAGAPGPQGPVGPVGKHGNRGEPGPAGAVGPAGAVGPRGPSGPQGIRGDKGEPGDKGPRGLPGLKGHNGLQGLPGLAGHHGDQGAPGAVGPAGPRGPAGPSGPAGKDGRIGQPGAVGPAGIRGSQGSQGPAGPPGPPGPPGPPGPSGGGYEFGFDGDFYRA

Substance | Km of hydrolysis of FITC-labelled type I collagen (Lineweaver-Burk plot; 50 mM Tris-HCl, 0.2 M NaCl, 5 mM CaCl2, pH 7.5, 30 °C) [mM]
recombinant 62-kDa collagenase from Grimontia hollisae (enzyme) | 0.00109
purified collagenase product from C. histolyticum | 0.00189

Reference: article PMC7054364
